According to the nanobody polyreactivity screen of Harvey et al. (2022):

experiment: yeast display, Sf9 membrane polyspecificity reagent, FACS + sequencing; frameworks hold sequencing errors
Procedure, shortened: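 Nanobodies from a synthetic yeast display library (Saccharomyces cerevisiae BJ5465), induced 36–48 hours with galactose, were stained 1 hour at 4 °C with 10% biotinylated, detergent-solubilized Sf9 membrane reagent, enriched on streptavidin microbeads, then FACS-sorted. Anti-HA (expression) and streptavidin (reagent binding) fluorescence set low and high (top ~1%) gates. Polyreactivity labels come from the gate of origin. Genes were colony-PCR amplified, MiSeq 2 × 250 sequenced and filtered by CDR length.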

Sequence	polyreactivity (PSR sort gate)
QVHLVESGGGLVQAGGSLRLSCAASGRIFVTYAMGWYRQAPGKERELVAAIPWDGDSTYYADSVKGRFTFSRDNAKNTVYLQMNSLKREDTAVYYCNAKKFNSHVELGYDYWGQGTQVTVSS	low polyreactivity
QVQLVESGGGLVQAGGSLRLSCAASGRIFSIYGMGWSRQAPGKERELVAVISGSVGITYYADSVKVRFTISRDNAKNTVYLQMISLKPEDTAVYYCNAKVRRRKYDYWGQGTQVTVSS	high polyreactivity
QVQLVESGGGLVQAGGSLRLSCAASGSIFEPYTMGWYRQAPGKERELVAAITGSGGSTFYADSVKGRFTISRDNAKNTVYLQMNSLKPEDTAVYYCNAFAYPYTDVDYWGQGTQVTVSS	low polyreactivity
QVQLVESGGGLVQAGGSLRLSCAASGFIFPQYAMGWYRQAPGKERELVAAISWSGTRTYYADSVKGRFTISRDNAKNTVYLQMNSLKPEDTAVYYCAARIDRQYRWTGFGYWGQGTQVTVSS	high polyreactivity
QVQLVESGGGLVQAGGSLRLSCAASGFIFKRYTMGWYRPAPGKERELVATINWNGGNTYYADSVKGRFTISRDNAKNTVYLQMNSLKPEDTAVYYCNARYWRGQGWPGYDYWGQGTQVTVSS	high polyreactivity
QVQLVESGGGLVQAGGSLRLSCAASGYIFATYAMGWYRQAPGKERELVAAISWSGGRTYYADSVKGRFTISRDNAKNTVYLQMNSLKPEDTAVYYCNKATSRRVYGYDYWGQGTQVTVSS	high polyreactivity
QVQLVESGVGLVQAGGSLRLSCADSGSNFRYTMGCYRQAPWKERELVAAINRGASTYYADSVKGRFTISRDNAKKTVYLQMNSLKPVDNAVYYCAASVGTQGYHGDYWGQGTQVTVSS	high polyreactivity
QVQLVESGGGLVQAGGSLRLSCAASGRIFYGNTMGWYRQAPGKERELVAAITWRGGSTYYADSVKGRFTISRDNAKITVYLQMNSLKPEDTAVYYCAAVSYRGRGYWGQGTQVTVSS	high polyreactivity
QVQLVESGGGLLQAGGSLRLSCAASGFTFRVNAMGWYRQAPGKERELVASITVSDARTYYADSVKGRFTISRDNAKNTVYLQMNSLKPEDTAVYYCAADYKGAFTTDWSSEYEYWGQGTQVTVSS	low polyreactivity
QVQLVESGGGLVQAGGSLRLSCAASGITFQRYAMGWYRQAPGKERELVAAISWSGGSTYYADSVKGRFTISRDNAKNTVYLQMNSLKPVDTAVYYCAAELSVSTSHGVDYWGQGTQVTVSS	high polyreactivity
QVQLVESGGGLVQAGRSLRLSCAASGSTYAKYAMGWYRQAPGKEREVVAVISRTGTITRYADSEKGRFTISRDNAKNTVYLQMNSLKPEDTAVYYCAATIRAYNQHGFLYPYYYWGQGNQVTVSS	high polyreactivity
AVQLEESRGGLVQAGGSLRLSCAASGFIFTVNAMGWSRQAPGKERELVAAITQSGGNTSYADSVKGRFTFSRDNAKNTFYLQMNSLKPEDTAVYYCAADDVDVEHPASWDDYDSWGQGTQVTVSS	low polyreactivity
QVQLVESGGGLVQAGGSLSLSCAASGRIIGFNAMGWYRQAPGKERELVASIRTTGGSTRYADSVKGRFTISRDNAKNTVYLQMNSLKPEDTAVYYCAARWGKTLWQYNYWGQGTQVTVSS	high polyreactivity
QVQLVESGGGLVQAGGSLRLSCAASGITFWSNAMGWYRQAPGKERELVAAITSGGNTNYADSVKGRFTISRDNAKNTVYLQMNSLKPEDTAVYYCAKRWTAREPWRKGMGYWGQGTQVTVSS	high polyreactivity
QVQIVESGGGLVQAGGSLRLSCAASGRILKYYAMGWYRPAPGKEREFVASIRYSGGSTYADSVKGRFTISRDNAKNTVYLQMNSLKPEDTAGYYCNAQLSWTKFAYRGMDYGGQGTQVTVSS	high polyreactivity
QVQLEESGGGLVQAGGSLRLSCASSGRIFQVNTMGWYRQAPGKESELVAAISASVGSTYYADSVKGRFTISRDNAKNTVYLQMNILKPEDTAVYYCAKSLGYSVVRTLSPTGFYYWGQGTQVTVSS	low polyreactivity
QVQLVESGGGLVQAGGSLRLSCAASGRTFFVNAMGWYRPAPGKERELVAAITWSGGSTYYADSVKGRFTISRDNAKNTVYLQMNSLKAEDTAVYYCNADYQWYLGGYDYWGQGTQVTVSS	high polyreactivity
QVQLVESGGGLVQAGGSLRLSCAASGRTFALYAMGWYRHAPGKERELVASISWRGGSTYYADSVKGRFTISRDNAKNTVYLQMNSLKPEDTAVYYCAADTWSYGPLNYRLEYWGQGTQVTVSS	low polyreactivity
QVQLVESGGGLVQAGGSLRLSCAASGSIFGGYAMGWYRQAPGKERELVAGITYSGDSTYYADSVKGRFTISRDNAKNTVYLQMNSLKPEDTAVYYCNADQRVDHDDFDYWGQGTQVTVSS	low polyreactivity
QVQLVESGGGLVQAGGSLRLSCAASGRTFRLNVMGWYRQAPGKERELVATISWSGGTTYYADSVKGRFTISRDNAKNTVYFQMNCLKPEDTAVYYCNRQVTWYPTGGYWGQGTQVTVSS	low polyreactivity

Sequence	polyreactivity (PSR sort gate)
QVQRVESGGGLGQAGGSLRLSCDASGRTFSGNTMGWYRQAPVKERELVAVINSGTRTYYADSVKGRFTISRDNAKNTVYLQMYSLKPEDTAGYYCATRCKSPSSKYGYWGQGTQVNVSS	high polyreactivity
QVQLVESGGGLVQAGGSLRLSCAASGGTFHLNAMGWYRQAPRKEREFVASISWSGGSTYYADSVKGRFTISRDNAKNTVYLQMNCLKPEDTAVYYCARRKYYRQGGRTKGYDYWGQGTQVTVSS	high polyreactivity
QVQLVESGGRLVQAGGSLRLSCAASGLTFGSYAMGWYRQAPGKESELVAGISARAGRTYYADSVKGRFTISRDNAKNTVYLQMNSLKPEDTAVYYCAARVYSRYHTKGFSNYQYDYWGQGTQVTVSS	high polyreactivity
QVQIVESGGGLVQAGGSLRLSCAASGSNNGYYTMGWYRQAPRKERELVAAINYSGGRTYYADSVKGRFTISRDNAKNTVYFQMNSLKPEDTAVYYCARAYYYGSDIMDYWGQGTQVTVSS	high polyreactivity
QVQLVESGGGLVQAGGSLRLSCAASGSIFPYYAMGWYRQAPGKEREFVASISSVTSTYADSVKGRFTISRDNAKNTVYLQMNSLKPEDTAVYYCAADRAYSWYSVSRYNYWGQGTQVTVSS	low polyreactivity
QVQLVESGGGLVQAGGSLRLSCAASGRTFRYNAMGWYRQAPGKERELVAAITQSGGSTYYADSVWGRFTISRDNAKNTVYLQMNSLKPDDTAVYYCAKVRERINYDYWGQGTQVTVSS	low polyreactivity
QVQLVESGVGLVQAGGSLRLSCAASGRTFFGYAMGWYRQAPGKEREFVASISKRGGRTYYADSVKGRFTISRDNAKNSVYLQMNSLKPEDTAVYYCNAYESYPDPLTMEYWGQGTQVTVSS	high polyreactivity
QVQLVESRGGLVQAGGSLRLSCAASGRIFVVYTMGWYRQAPGKERELVAAISWRGGTTYYADSVKRRFTISRDNAKTTVYLQMTSLIPEDTAVSYCATREWSPRGSYDYSGQGTQVTVSS	high polyreactivity
QVQLVESGGGLVQAGGSLRLSCASSGRILYGSAMGWYRQAPGKERALVAAISWRSGSTYYADSVKGRFTISRDNAKNTVYLQMNSLKPEDTEVYYCAAGYGGYPGGYYWGQGTQVTVSS	high polyreactivity
QVQLVESGGGLVQAGGSLRLSCAASGRTFGLYAMGWYRQAPGKERELVAAIDQSTGSTYYADSVKGRFTISRDHAKNTVYLQMNSLKPEDTAVYYCAAEEASTVRYYWYDYWGQGTQVTVSS	high polyreactivity
QVQLVESGGGLVQAGGSLRLSCAASGFIFRRYAMGWYRQAPGKERELVAAITRSGGSTYYADSVKGRFTISRDNAKNTVYLQMNSLKPEDTAVYYCAAPYFGANGKPEYGYWGQGTQVTVSS	high polyreactivity
QVQLVESGGGLVQAGGSLRLRCAASGSTFWGYAMGWYRQAPGKERELVASITWRGGSTYADSVKGRFTISRDNAKNTVYLQMNSLKPEDTAVYYCNALPYRYRRYDYWGQGTQVTVSS	low polyreactivity
QVQLVESGGGLVQAGGSLRLSCAASGSIIGRYTMGWYRQAPGKERELVAAINRSGGSTSYADSVKGRFTISRDNAKNTVYLQMNSLKPEDTAVYYCNRARSVPQFYGTYGFGYDYWGQGTQVTVSS	low polyreactivity
QVQLVESGGGLVQAGGSLSLSCAASGRIFRRYAMGWYRQAPGKERELVAAISRGGSTYYADSVKGRFTISRDNAKNTVYLQMISLKPEDTAVYYCAAYSQSTSFGGYDSWGQGTQVTVSS	high polyreactivity
QVQLVESGGGLVQAGGSLRLSCAASGFIFKRYAMGWYRQAPGKERELVAAITGSGSRTYYADSVKGRFTISRDNAKNTVYLQMNSLKPEDTAVYYCNKDRRPTADFGYWGQGTQVTVSS	high polyreactivity
QVQLVESGGGLVQAGGSLRLSCAASGRIFLINAMGWYRQAPGKESEFVAAIRTGGNTYYADSVKGRFTLSRDNAKNTVYLQMNSLKPEDTAVYYCAADRIYPYYRWSGAHRSDVDYWGQGTQVTVSS	low polyreactivity
QVQLVESGGGLVQAGGSLRLSCAASGIIFSPYAMGWYRQAPVKERELVAAISYSGGSTYYADSVKGRFTISRDNAKNTVYLQMNSLKPEDTAVYYCAVVYSYYLAVLGYWDYDYWGQGTQVTVSS	low polyreactivity
QVQLVESGGGLVQAGGSLRLSCAASGITFDRNVMGWYRKSPGKETELVAAISKSGGRTYYADSVKGRFTISRDIAKNTVYLQMNSLKTEDTAVYDCNADFYSRKSLHQYDYWGQGTQVTVSS	high polyreactivity
QVQLVESGGGLVQAGCSLRLSCAASGRTFYYNAMGWYRQAPGKERELVAAITRSGSSTYYADSVKGRFTISRDNAKNTVYLQMNSLKPEDTAVYYCAARVGDAYYYWGQGTQVTVSS	high polyreactivity
QVQLVESGGGLVQAGGSLRLICAASGFIFWIYAMGWYRQAPGKEREFVAVITYRGDTTYYADSVKGRFTISRDNAKNTVYLQMNSLKPEDTAVYYCAAYTVQKYGYWGQGTQVTVSS	low polyreactivity
